Drawing on PMC10493288, “Identification and characterization of a novel chromosomal aminoglycoside 3’-O-phosphotransferase, APH(3′)-Id, from Kluyvera intermedia DW18 isolated from the sewage of an animal farm” (Frontiers in Microbiology, 2023), this text covers Km, kcat and kcat/Km for one substance.

What is called Km is the substrate concentration at which the rate is half of its maximum. Usually kcat stands for the maximal rate divided by the concentration of active sites. For orientation: kcat/Km means the turnover number divided by the Michaelis constant.

Common to all, as to experiment: purified protein
Holding throughout (type): biochemical, Kluyvera intermedia
What all share (settings): 1 mM ATP, 1 mM MgCl2, 2 mM KCl, 100 mM HEPES pH 7.5

For data set [1], the system named is NC[C@@H]1O[C@H](O[C@H]2[C@@H](O)[C@H](O[C@@H]3[C@@H](O)[C@H](N)C[C@H](N)[C@H]3O[C@H]3O[C@H](CO)[C@@H](O)[C@H](O)[C@H]3N)O[C@@H]2CO)[C@H](N)[C@@H](O)[C@@H]1O.
In data set [2] the test system is NC[C@H]1O[C@H](O[C@H]2[C@H](O)[C@@H](O[C@H]3O[C@H](CO)[C@@H](O)[C@H](N)[C@H]3O)[C@H](N)C[C@@H]2N)[C@H](O)[C@@H](O)[C@@H]1O.
Data set [3] has as its system NC[C@H]1O[C@H](O[C@H]2[C@H](O[C@@H]3O[C@H](CO)[C@@H](O)[C@H]3O)[C@@H](O)[C@H](N)C[C@@H]2N)[C@H](N)[C@@H](O)[C@@H]1O.

On to APH(3′)-Id (Kluyvera intermedia), for which the Michaelis-Menten constant (Km) in data set [1] worked out at 12.19 ± 1.56 µM; in data set [2], 10.04 ± 2.95 µM; in data set [3], 3.831 ± 1.57 µM. The kcat was determined as 2.64 ± 0.072 s⁻¹ in data set [1], 1.06 ± 0.114 s⁻¹ in data set [2] and 1.73 ± 0.023 s⁻¹ in data set [3]. For the same substance, the results for the kcat/Km in data set [1], in data set [2] and in data set [3] were 218000 ± 21000 M⁻¹ s⁻¹, 110000 ± 18000 M⁻¹ s⁻¹ and 496000 ± 163000 M⁻¹ s⁻¹, respectively.
